Tests used:
[1] = biological target: His-labeled rat recombinant agrin (R&D Systems) (UniProt P25304)
C212 myotubes = test: In vitro assessment of AChR clustering in myotubes; type: cell-based; details: FIG. 3A, B
Procedure: C212 cells were purchased from ATCC (Manassas, Va.). Cells were expanded and differentiated into myotubes as previously described. Five days following differentiation, myotubes were then treated overnight with […] His-labeled rat recombinant agrin (R&D Systems, Minneapolis, Minn.) or […] rat recombinant agrin incubated with […] MMP3 active subunit (Millipore, Billerica, Mass.) for 72 hours. Western blot was performed to confirm cleavage of agrin. After treatment of myotubes with Alexa 555-conjugated a-bungarotoxin (a-BTX; Invitrogen, Carlsbad, Calif.; 1:1,000), samples were fixed according to standard procedures for immunohistochemistry. Ten random fields at 40 magnification were evaluated by a blinded observer for AChR clustering under fluorescent microscopy as previously described. An AChR cluster was defined as an aggregate of at least 4 lm2. Three samples from each treatment group were analyzed.
Agrin was cleaved by MMP3, resulting in a 60 kDa fragment as detected by silver stain.

Sequence of UniProt P25304 (P25304 1153-1959): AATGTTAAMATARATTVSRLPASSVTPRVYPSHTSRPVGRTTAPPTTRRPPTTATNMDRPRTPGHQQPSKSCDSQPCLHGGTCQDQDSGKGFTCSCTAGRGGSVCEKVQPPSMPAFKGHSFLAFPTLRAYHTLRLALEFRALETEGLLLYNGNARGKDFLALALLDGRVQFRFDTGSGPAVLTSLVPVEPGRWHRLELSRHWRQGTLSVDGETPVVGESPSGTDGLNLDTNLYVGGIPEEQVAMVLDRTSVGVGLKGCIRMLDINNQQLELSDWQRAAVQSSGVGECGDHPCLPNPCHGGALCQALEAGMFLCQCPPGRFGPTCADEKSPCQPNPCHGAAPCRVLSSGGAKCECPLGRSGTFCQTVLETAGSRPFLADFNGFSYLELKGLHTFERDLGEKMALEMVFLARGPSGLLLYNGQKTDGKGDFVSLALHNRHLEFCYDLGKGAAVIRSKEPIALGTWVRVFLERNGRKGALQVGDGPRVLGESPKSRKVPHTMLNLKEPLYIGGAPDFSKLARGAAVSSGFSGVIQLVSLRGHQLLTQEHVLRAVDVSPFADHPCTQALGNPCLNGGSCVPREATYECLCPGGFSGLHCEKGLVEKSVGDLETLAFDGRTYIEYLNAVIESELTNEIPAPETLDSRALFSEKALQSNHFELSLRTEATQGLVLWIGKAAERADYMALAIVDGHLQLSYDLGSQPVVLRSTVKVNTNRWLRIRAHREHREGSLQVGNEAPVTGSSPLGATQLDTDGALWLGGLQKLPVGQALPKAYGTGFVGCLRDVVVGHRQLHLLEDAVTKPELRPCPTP

Substance	AChR clusters/field in C212 myotubes (agrin processed by MMP3, against 7.30 for agrin alone) [1]	cleavage of agrin (silver stain) [1]	degradation of 90 kDa agrin after 72 hours [1]	AChR clustering (images) (C212 myotubes)
MMP3 active subunit (Millipore)	7.30 6 0.578 clusters/field vs 2.20 6 0.467 clusters/field	Agrin was cleaved by MMP3, resulting in a 60 kDa fragment as detected by silver stain	Treatment with MMP3 for 72 hours led to complete degradation of 90 kDa agrin	
agrin: His-labeled rat recombinant agrin (R&D Systems), approximately 90 kDa				clustering

From patent US20140170162A1, “PRESERVATION OF THE NEUROMUSCULAR JUNCTION (NMJ) AFTER TRAUMATIC NERVE INJURY” (The Regents of the University of California, priority 2012, published 2014)
